Laboratory results published in PMC11924951 (The Journal of Experimental Medicine, 2025).

Experiments:
Conditions in all cases: both partners purified
Fc-tagged IFNα1 = biological target: T1, Fc-tagged IFNα1 (human, UniProt P0DY56); experiment: BLI; blocking format: IFN-I preincubated 1 h at room temperature with rontalizumab (1:50), sifalimumab (1:50) or plasma (1:10) in assay buffer with 50% goat serum; His-tagged IFNAR1 or IFNAR2 loaded on Ni-NTA biosensors, blocked in 100% goat serum; association 120 s
T1 construct: interferon alpha-1 (IFNα1), human; source: bought: ACROBiosystems (IFA-H5258)

His-tagged IFNAR1 = biological target: T2, His-tagged IFNAR1 (human, UniProt P17181 28-436); experiment: BLI; His-tagged IFNAR1 (25 nM) or IFNAR2 (100 nM) loaded on Ni-NTA biosensors for 600 s; IFN-I in solution, association 60-120 s, dissociation 120 s; 0.02% Tween-20, 0.1% BSA in 1x PBS, pH 7.4; Octet R2
T2 construct: interferon alpha/beta receptor 1 (IFNAR1), human; Soluble recombinant receptor subunit loaded on Ni-NTA biosensors; source: bought: ACROBiosystems (IF1-H5225)
T2 sequence (looked up): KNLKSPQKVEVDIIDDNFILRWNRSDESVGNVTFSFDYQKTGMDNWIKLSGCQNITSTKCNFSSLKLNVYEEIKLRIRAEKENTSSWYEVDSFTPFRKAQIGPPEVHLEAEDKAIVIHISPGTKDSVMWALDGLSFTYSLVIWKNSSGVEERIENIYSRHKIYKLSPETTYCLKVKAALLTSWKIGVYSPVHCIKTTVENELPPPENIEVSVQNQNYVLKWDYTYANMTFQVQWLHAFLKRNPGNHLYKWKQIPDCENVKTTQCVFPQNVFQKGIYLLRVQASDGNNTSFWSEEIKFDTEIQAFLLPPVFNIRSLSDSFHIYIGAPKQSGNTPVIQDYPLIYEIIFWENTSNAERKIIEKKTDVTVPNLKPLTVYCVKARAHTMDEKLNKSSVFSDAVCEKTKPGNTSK

His-tagged IFNAR2 = biological target: T3, His-tagged IFNAR2 (human, UniProt P48551 27-243); experiment: as above
T3 construct: interferon alpha/beta receptor 2 (IFNAR2), human; Soluble recombinant receptor subunit loaded on Ni-NTA biosensors; source: bought: ACROBiosystems (IF2-H5224)
T3 sequence (looked up): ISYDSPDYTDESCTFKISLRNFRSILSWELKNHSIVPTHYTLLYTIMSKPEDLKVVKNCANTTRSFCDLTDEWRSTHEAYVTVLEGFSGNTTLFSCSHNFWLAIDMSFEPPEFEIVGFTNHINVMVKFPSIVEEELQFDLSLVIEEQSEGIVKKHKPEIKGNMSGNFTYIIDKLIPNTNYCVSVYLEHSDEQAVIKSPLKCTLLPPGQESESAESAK

Binder | binding result (Fc-tagged IFNα1) | binding result (His-tagged IFNAR1) | binding result (His-tagged IFNAR2)
rontalizumab (antibody, V domains shown, source: bought: Thermo Fisher Scientific (MA5-41908)) VH: EVQLVESGGGLVQPGGSLRLSCATSGYTFTEYIIHWVRQAPGKGLEWVASINPDYDITNYNQRFKGRFTISLDKSKRTAYLQMNSLRAEDTAVYYCASWISDFFDYWGQGTLVTVSS VL: DIQMTQSPSSLSASVGDRVTITCRASQSVSTSSYSYMHWYQQKPGKAPKVLISYASNLESGVPSRFSGSGSGTDFTLTISSLQPEDFATYYCQHSWGIPRTFGQGTKVEIK | binds |  | 
Fc-tagged IFNα1 (Fc fusion, human, UniProt P0DY56 24-189, looked up, interferon alpha-1 (IFNα1), human; source: bought: ACROBiosystems (IFA-H5258)) CDLPETHSLDNRRTLMLLAQMSRISPSSCLMDRHDFGFPQEEFDGNQFQKAPAISVLHELIQQIFNLFTTKDSSAAWDEDLLDKFCTELYQQLNDLEACVMQEERVGETPLMNADSILAVKKYFRRITLYLTEKKYSPCAWEVVRAEIMRSLSLSTNLQERLRRKE |  | binds | binds
sifalimumab (antibody, V domains shown, source: bought: Thermo Fisher Scientific (MA5-41904)) VH: QVQLVQSGAEVKKPGASVKVSCKASGYTFTSYSISWVRQAPGQGLEWMGWISVYNGNTNYAQKFQGRVTMTTDTSTSTAYLELRSLRSDDTAVYYCARDPIAAGYWGQGTLVTVSS VL: not shown | binds |  | 
